In PMC7615804, “Molecular mechanism of dynein-dynactin complex assembly by LIS1” (Science (New York, N.Y.), 2024):
Positions count from the first letter of the chain named. In names and notes the source's numbering stands.

T1: mouse JIP3^185-505 (JIP3 residues 186-505) (mouse, UniProt Q9ESN9-5 186-505)
T1 construct: 2CT vector; also called JIP3 fragment containing the Spindly motif and LZII; JIP3 186-505; source: SoluBL21 E. coli, purified (Ni-NTA, TEV, Strep-Tactin, SEC); not shown: His6, N-terminal, cleaved; MBP, N-terminal, cleaved
T1 sequence (looked up): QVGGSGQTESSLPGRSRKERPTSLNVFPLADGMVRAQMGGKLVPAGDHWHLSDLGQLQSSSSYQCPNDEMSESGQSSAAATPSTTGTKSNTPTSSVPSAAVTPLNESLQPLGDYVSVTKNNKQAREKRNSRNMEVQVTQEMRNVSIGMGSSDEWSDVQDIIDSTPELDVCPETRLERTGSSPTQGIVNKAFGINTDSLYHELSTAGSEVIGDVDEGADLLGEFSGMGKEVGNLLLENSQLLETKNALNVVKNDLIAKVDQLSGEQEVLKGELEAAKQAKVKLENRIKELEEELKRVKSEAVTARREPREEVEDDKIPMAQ

T2: mouse JIP3 186-505_L383A/E386A (mouse, UniProt Q9ESN9-5 186-505, L383A | E386A)
T2 construct: JIP3, mouse cDNA, isoform 3a, UniProt Q9ESN9-5, residues 186-505 with L383A and E386A; also called Spindly motif mutant (L383A/E386A); source: SoluBL21 E. coli, purified (Ni-NTA, TEV, Strep-Tactin, SEC); not shown: His6, N-terminal, cleaved; MBP, N-terminal, cleaved
T2 sequence (looked up): T1 sequence (looked up) with L198A, E201A

T3: LIS1 (full length human) (human, UniProt P43034 1-410)
T3 construct: LIS1, human, full length, UniProt P43034 (printed for the AlphaFold2 prediction); A version with an additional C-terminal SNAPf tag also exists; also called wild-type LIS1; source: Sf9, purified (IgG Sepharose, TEV, SEC); not shown: ZZ, N-terminal, cleaved
T3 sequence (looked up): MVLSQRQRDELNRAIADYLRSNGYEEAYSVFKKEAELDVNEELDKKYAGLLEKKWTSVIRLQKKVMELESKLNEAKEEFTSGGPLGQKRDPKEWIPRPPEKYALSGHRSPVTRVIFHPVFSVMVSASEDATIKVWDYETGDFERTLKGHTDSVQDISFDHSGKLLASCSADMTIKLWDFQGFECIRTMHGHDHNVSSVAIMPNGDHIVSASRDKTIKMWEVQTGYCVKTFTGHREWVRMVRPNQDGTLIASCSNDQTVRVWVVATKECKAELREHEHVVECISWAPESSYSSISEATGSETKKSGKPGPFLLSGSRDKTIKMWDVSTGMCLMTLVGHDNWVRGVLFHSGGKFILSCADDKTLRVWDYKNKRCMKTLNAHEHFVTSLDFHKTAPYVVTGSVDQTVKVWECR

B1: human Arf6 (12-175_Q67L) (domain or fragment, UniProt P62330 12-175, looked up)
chain: KEMRILMLGLDAAGKTTILYKLKLGQSVTTIPTVGFNVETVTYKNVKFNVWDVGGLDKIRPLWRHYYTGTQGLIFVVDCADRDRIDEARQELHRIINDREMRDAIILIFANKQDLPDAMKPHEIQEKLGLTRIRDRNWYVQPSCATSGDGLYEGLTWLTSNYKS
notes: Arf6, human, residues 12-175 with Q67L; pGEX-6P-1 vector: N-terminal GST, Prescission site, C-terminal 6xHis; source: SoluBL21 E. coli, purified (Ni-NTA, glutathione resin, SEC)
B2: LIS1-N (residues 1-90) (domain or fragment, human, UniProt P43034 1-90, looked up)
chain: MVLSQRQRDELNRAIADYLRSNGYEEAYSVFKKEAELDVNEELDKKYAGLLEKKWTSVIRLQKKVMELESKLNEAKEEFTSGGPLGQKRD
notes: LIS1, human, residues 1-90 (LisH domain and coiled coil); source: Sf9, purified (IgG Sepharose, TEV, SEC); not shown: ZZ, N-terminal, cleaved
B3: MBP-DIC-N (dynein intermediate chain 1-76) (domain or fragment, human, UniProt Q13409 1-76, looked up)
chain: MSDKSELKAELERKKQRLAQIREEKKRKEEERKKKETDQKKEAVAPVQEESDLEKKRREAEALLQSMGLTPESPIV
notes: dynein intermediate chain, residues 1-76; UniProt Q13409 is printed for DIC in the AlphaFold2 predictions; 2CT vector; the general protocol includes a TEV step, but this construct is named and used as MBP-DIC-N on amylose resin; also called DIC-N construct; source: SoluBL21 E. coli, purified; not shown: MBP, N-terminal, kept
B4: GST-Psc-DCTN1(residues 350-547)-GFP-6xHis (domain or fragment, human (from the printed UniProt entry), UniProt Q14203-1 350-547, looked up)
chain: GSDGAASSYQLKQLEEQNARLKDALVRMRDLSSSEKQEHVKLQKLMEKKNQELEVVRQQRERLQEELSQAESTIDELKEQVDAALGAEEMVEMLTDRNLNLEEKVRELRETVGDLEAMNEMNDELQENARETELELREQLDMAGARVREAQKRVEAAQETVADYQQTIKKYRQLTAHLQDVNRELTNQQEASVERQQQ
notes: DCTN1/p150glued, UniProt Q14203-1, residues 350-547 (CC1B fragment); also called CC1B; p150-CC1B; source: SoluBL21 E. coli, purified (Ni-NTA, glutathione resin, SEC)
B5: GCN4-WD40-SNAP (other, human)
chain: GSGSVKQLEDKVEELLSKNAHLENEVARLKKLVSGGPLGQKRDPKEWIPRPPEKYALSGHRSPVTRVIFHPVFSVMVSASEDATIKVWDYETGDFERTLKGHTDSVQDISFDHSGKLLASCSADMTIKLWDFQGFECIRTMHGHDHNVSSVAIMPNGDHIVSASRDKTIKMWEVQTGYCVKTFTGHREWVRMVRPNQDGTLIASCSNDQTVRVWVVATKECKAELREHEHVVECISWAPESSYSSISEATGSETKKSGKPGPFLLSGSRDKTIKMWDVSTGMCLMTLVGHDNWVRGVLFHSGGKFILSCADDKTLRVWDYKNKRCMKTLNAHEHFVTSLDFHKTAPYVVTGSVDQTVKVWECR
notes: LIS1, human, residues 81-410; source: Sf9, purified (IgG Sepharose, TEV, SEC); not shown: ZZ, N-terminal, cleaved; SNAPf, C-terminal, kept
B6: JIP3^1-560 (domain or fragment, human, UniProt Q9UPT6-1 1-560, looked up)
chain: MMEIQMDEGGGVVVYQDDYCSGSVMSERVSGLAGSIYREFERLIHCYDEEVVKELMPLVVNVLENLDSVLSENQEHEVELELLREDNEQLLTQYEREKALRRQAEEKFIEFEDALEQEKKELQIQVEHYEFQTRQLELKAKNYADQISRLEERESEMKKEYNALHQRHTEMIQTYVEHIERSKMQQVGGNSQTESSLPGRRKERPTSLNVFPLADGTVRAQIGGKLVPAGDHWHLSDLGQLQSSSSYQCPQDEMSESGQSSAAATPSTTGTKSNTPTSSVPSAAVTPLNESLQPLGDYGVGSKNSKRAREKRDSRNMEVQVTQEMRNVSIGMGSSDEWSDVQDIIDSTPELDMCPETRLDRTGSSPTQGIVNKAFGINTDSLYHELSTAGSEVIGDVDEGADLLGEFSVRDDFFGMGKEVGNLLLENSQLLETKNALNVVKNDLIAKVDQLSGEQEVLRGELEAAKQAKVKLENRIKELEEELKRVKSEAIIARREPKEEAEDVSSYLCTESDKIPMAQRRRFTRVEMARVLMERNQYKERLMELQEAVRWTEMIRASRE
notes: JIP3, human, UniProt Q9UPT6-1, residues 1-560, codon optimised for Sf9; The bacterial 2CT version would carry a C-terminal Strep-tag II; source: Sf9, purified (IgG Sepharose, TEV, SEC); not shown: His6, N-terminal, cleaved; ZZ, N-terminal, cleaved
B7: LIS1^mut (natural protein, human, UniProt P43034 1-410, looked up)
chain: MVASQEARDELNRAIADYLRSNGYEEAYSVFKKEAELDVNEELDKEYAGLLEEEWAAVAELAEEVMELRSKLNEAKEEFTSGGPLGQKRDPKEWIPRPPEKYALSGHRSPVTRVIFHPVFSVMVSASEDATIKVWDYETGDFERTLKGHTDSVQDISFDHSGKLLASCSADMTIKLWDFQGFECIRTMHGHDHNVSSVAIMPNGDHIVSASRDKTIKMWEVQTGYCVKTFTGHREWVRMVRPNQDGTLIASCSNDQTVRVWVVATKECKAELREHEHVVECISWAPESSYSSISEATGSETKKSGKPGPFLLSGSRDKTIKMWDVSTGMCLMTLVGHDNWVRGVLFHSGGKFILSCADDKTLRVWDYKNKRCMKTLNAHEHFVTSLDFHKTAPYVVTGSVDQTVKVWECR
notes: The last substitution is printed as E6 9R and read as E69R; source: Sf9, purified (IgG Sepharose, TEV, SEC); not shown: ZZ, N-terminal, cleaved

Experiments:
[1] = biological target: T1, mouse JIP3^185-505 (JIP3 residues …); assay: pull-down; pull-downs with mouse JIP3 186-505 constructs, Arf6 and the recombinant pointed end complex (Fig. S3E); purified recombinant proteins; which protein was held on the resin is not told in the text shown; conditions: both partners purified
[2] = biological target: T2, mouse JIP3 186-505_L383A/E386A; assay: as above; conditions: both partners purified
[3] = biological target: B4; assay: pull-down; GST pull-down on glutathione resin with GST-CC1A/B or CC1B as bait; LIS1, LIS1-N or MBP-DIC-N as prey; GST-PD buffer (50 mM HEPES pH 7.5, 100 mM KCl, 1 mM MgCl2, 1 mM DTT), room temperature; Coomassie-stained SDS-PAGE; conditions: both partners purified
[4] = biological target: T4, GST-Psc-DCTN1(residues 214-547)-GFP-6xHis (human (from the printed UniProt entry), UniProt Q14203-1 214-547); assay: as above; conditions: both partners purified
T4 construct: DCTN1/p150glued, UniProt Q14203-1, residues 214-547 (CC1 fragment: CC1A and CC1B); also called GST-CC1A/B; CC1A/B; source: SoluBL21 E. coli, purified (Ni-NTA, glutathione resin, SEC); not shown: GST, N-terminal, kept

LIS1 (full length human) = biological target: T3, LIS1 (full length human); assay: as above; conditions: both partners purified
[5] = biological target: the molecule itself; assay: SEC-MALS; 70 μL at 1 mg/mL, GF150 buffer, Superdex 200 5/150
[6] = biological target: T5, dynactin pointed end complex (ZZ-TEV-Arp11, p62, p25, p27) (human, UniProt Q9NZ32 1-417; Q9UJW0-1 1-460; Q9BTE1 1-182; O00399 1-190); assay: SEC; pointed end complex and JIP3^1-560 (or its Spindly mutant) mixed 1:1 at 10 μM final in GF150 buffer, 30 min at 4°C, Superose 6 Increase 3.2/300; conditions: both partners purified
T5 construct: Arp11, human, subunit of the dynactin pointed end complex; p62, human, isoform A, UniProt Q9UJW0-1; p25, human, subunit of the dynactin pointed end complex; p27, human, subunit of the dynactin pointed end complex; source: pAceBac1 vector; copies: + + +
T5 sequence (Q9NZ32 whole entry, chain 1 of 4, canonical isoform): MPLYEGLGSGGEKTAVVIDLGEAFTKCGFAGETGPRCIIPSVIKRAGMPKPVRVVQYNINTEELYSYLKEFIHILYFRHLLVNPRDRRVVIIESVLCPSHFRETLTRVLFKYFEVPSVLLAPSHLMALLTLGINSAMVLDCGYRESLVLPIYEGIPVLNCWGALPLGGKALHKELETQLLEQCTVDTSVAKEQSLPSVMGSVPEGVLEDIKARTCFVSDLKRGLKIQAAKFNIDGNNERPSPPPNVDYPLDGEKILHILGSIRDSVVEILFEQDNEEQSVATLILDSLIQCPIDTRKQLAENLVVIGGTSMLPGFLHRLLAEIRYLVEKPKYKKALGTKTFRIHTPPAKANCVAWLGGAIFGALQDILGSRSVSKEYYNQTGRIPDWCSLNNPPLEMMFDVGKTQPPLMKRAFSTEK
T5 sequence (Q9UJW0 whole entry, chain 2 of 4, canonical isoform): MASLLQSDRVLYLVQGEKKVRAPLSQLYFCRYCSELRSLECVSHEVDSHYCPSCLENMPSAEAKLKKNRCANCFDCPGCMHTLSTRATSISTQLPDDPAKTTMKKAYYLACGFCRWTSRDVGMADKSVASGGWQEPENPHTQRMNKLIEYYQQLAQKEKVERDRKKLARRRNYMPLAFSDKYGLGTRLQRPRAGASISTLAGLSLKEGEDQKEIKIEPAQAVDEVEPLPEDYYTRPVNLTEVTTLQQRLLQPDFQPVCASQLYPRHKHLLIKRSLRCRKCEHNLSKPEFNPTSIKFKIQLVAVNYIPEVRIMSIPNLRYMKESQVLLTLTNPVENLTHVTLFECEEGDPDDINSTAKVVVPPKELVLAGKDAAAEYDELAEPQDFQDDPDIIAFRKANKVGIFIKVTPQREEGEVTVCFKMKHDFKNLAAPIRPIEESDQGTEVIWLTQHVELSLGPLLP
T5 sequence (Q9BTE1 whole entry, chain 3 of 4, canonical isoform): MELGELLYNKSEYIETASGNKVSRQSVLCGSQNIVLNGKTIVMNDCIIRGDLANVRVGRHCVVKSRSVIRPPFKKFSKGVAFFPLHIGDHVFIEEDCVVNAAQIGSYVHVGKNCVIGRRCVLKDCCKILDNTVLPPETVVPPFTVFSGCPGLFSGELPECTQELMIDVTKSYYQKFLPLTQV
T5 sequence (O00399 whole entry, chain 4 of 4, canonical isoform): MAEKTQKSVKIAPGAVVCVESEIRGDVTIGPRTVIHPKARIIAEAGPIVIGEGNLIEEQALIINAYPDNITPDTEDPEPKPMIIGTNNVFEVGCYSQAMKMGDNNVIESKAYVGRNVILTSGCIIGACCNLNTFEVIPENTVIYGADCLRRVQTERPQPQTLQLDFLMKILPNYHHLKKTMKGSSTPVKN

**Q.** Does B1 bind [1]?
**A.** Result: binds

**Q.** Does B1 bind [2]?
**A.** Result: binds

**Q.** Does B2 bind [3]?
**A.** Result: binds

**Q.** Does B3 bind [4]?
**A.** Result: binds

**Q.** Does B4 bind (LIS1 (full length human))?
**A.** Result: binds

**Q.** For B5, which “stoichiometry N” value [5] is on record?
**A.** Its value is 2.

**Q.** Does B6 bind [6]?
**A.** Result: binds

**Q.** With B7 as the binder, how does the “stoichiometry N” value [5] read?
**A.** Its value is 2.
